Results reported in publication PMC3538150 (Cell reports, 2012).
Where no end group is shown, it is not given here.

Legend:
[1] = molecular target: T1, DNA ligase IV DNA binding domain (LigIV-DBD; residues 1-240), wild type (human, UniProt P49917 1-240); assay: ITC
T1 sequence (looked up): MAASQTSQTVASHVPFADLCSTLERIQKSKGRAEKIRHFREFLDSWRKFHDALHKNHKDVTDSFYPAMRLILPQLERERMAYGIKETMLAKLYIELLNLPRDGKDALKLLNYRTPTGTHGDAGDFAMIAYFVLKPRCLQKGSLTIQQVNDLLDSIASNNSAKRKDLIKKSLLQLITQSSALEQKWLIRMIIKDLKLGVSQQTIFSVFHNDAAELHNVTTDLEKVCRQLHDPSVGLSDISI

LigIV-DBD D18H = molecular target: T2, LigIV-DBD D18H (human, UniProt P49917 1-240, D18H); assay: ITC
T2 sequence (looked up): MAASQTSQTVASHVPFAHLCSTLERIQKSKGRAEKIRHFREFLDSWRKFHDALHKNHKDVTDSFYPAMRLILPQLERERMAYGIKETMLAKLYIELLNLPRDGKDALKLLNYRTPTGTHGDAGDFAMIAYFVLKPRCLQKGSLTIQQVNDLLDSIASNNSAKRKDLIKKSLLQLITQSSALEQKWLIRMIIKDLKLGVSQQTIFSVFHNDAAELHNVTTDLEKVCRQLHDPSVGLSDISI

LigIV-DBD V14A = molecular target: T3, LigIV-DBD V14A (human, UniProt P49917 1-240, V14A); assay: ITC
T3 sequence (looked up): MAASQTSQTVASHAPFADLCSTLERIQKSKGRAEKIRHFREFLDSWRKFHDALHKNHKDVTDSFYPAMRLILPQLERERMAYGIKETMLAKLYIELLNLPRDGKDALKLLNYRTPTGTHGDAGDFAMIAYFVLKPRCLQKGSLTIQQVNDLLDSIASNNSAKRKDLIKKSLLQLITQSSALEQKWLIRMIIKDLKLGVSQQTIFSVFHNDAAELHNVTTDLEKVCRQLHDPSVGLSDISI

[2] = molecular target: T1, DNA ligase IV DNA binding domain …; assay: fluorescence polarisation

Question: How did the Kd [1] turn out when DVPQWEVFFKR [cArt-Pep, peptide derived from the Artemis C-terminal region (485-DVPQWEVFFKR-495)] was run?
Answer: 4.8 µM

Question: And the “stoichiometry N” value [1]?
Answer: 1 ± 0.1

Question: What about the Kd (LigIV-DBD D18H) of the same binder?
Answer: 9.1 µM

Question: What about the Kd (LigIV-DBD V14A) of the same binder?
Answer: 13.6 µM

Question: Does DVPQWEVFFKR (also: 6-FAM label, position not given here) [6-FAM (6-carboxyfluorescein) labeled cArt-Pep] bind [2]?
Answer: binds
